In article PMC7445246 (Signal Transduction and Targeted Therapy, 2020):

Experiments:
Details in all cases: both partners purified
recombinant human PD-L1 [1] = molecular target: T1, recombinant human PD-L1 (Homo sapiens, UniProt Q9NZQ7); experiment: SPR; JS003 immobilized on the chip; serial dilutions of PD-L1 from 0.75 nM to 24 nM flowed through
T1 construct: PD-L1, human; the methods are probably in the supplementary material; In the internalization assay hPD-L1 was expressed on CHO-K1 cells; also called hPD-L1
T1 sequence (Q9NZQ7 19-290): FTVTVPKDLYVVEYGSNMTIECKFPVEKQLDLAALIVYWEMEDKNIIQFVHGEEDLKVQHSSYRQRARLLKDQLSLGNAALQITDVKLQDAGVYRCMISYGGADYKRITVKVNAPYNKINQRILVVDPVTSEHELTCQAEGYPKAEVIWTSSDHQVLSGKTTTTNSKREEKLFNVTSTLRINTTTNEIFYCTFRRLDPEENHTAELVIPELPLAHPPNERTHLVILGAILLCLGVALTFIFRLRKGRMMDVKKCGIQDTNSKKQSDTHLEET

recombinant human PD-L1 [2] = molecular target: T1, recombinant human PD-L1; experiment: SPR; JS003 captured on biosensor; association with recombinant human PD-L1 at pH 7.4; dissociation followed at pH 5.5 (compared with pH 7.4)
recombinant human PD-L1 [3] = molecular target: T1, recombinant human PD-L1; experiment: SPR; JS003 captured on biosensor; association with recombinant human PD-L1 at pH 7.4; dissociation followed at pH 6.0 (compared with pH 7.4)

- Kd (recombinant human PD-L1 [1]): 0.288 nM
- fold faster dissociation rate at pH 5.5 than at pH 7.4 (recombinant human PD-L1 [2]): 8.7 fold
- fold faster dissociation rate at pH 6.0 than at pH 7.4 (recombinant human PD-L1 [3]): 3.4 fold
B1: JS003 (antibody, V domains shown)
VH: QGQLQESGPSLVKPSQTLSLTCTVSGDSITRGYWNWIRKHPGKGLEYIGYISYTGSTYSNLSLKSRVTISRDTSKNQYYLKLSSVTAADTAVYYCATSTGWLDPVDYWGQGTLVTVSS
VL: DIVMTQSPDSLAVSLGERATINCKASQNVDTSVAWFQQKPGQPPKALIYSASFRYSGVPDRFSGSGSGTDFTLTISSLQAEDVAVYFCQQYYGYPFTFGQGTKLEIK
notes: humanized PD-L1 specific mAb; Fab part as the heavy chain of m2; as the light chain of m2; Whole humanized mAb; Labelled with CypHer5E in the internalization assay only; also called JS003 antibodies
